Reference: article PMC2171502 (The Journal of Cell Biology, 2005)
“And” between values parts separate entries of the source, which are not always exact repeats. Identical values can stand only once.

B1: GST-Myo1p-23A (GST fused to the TH2-SH3-CA domains of the S. pombe myosin-I Myo1p tail) (domain or fragment, UniProt Q9Y7Z8 965-1217, looked up)
chain: TSKSKPFPRLATGGSTAAARGPRPVVQNKPAATKPVSMPAAKSKPAPMANPVSTAQQTQNRPPAPAMQARPNTTQAAAPVTSTTTTIKQATTVSASKPAPSTVTSAASSPSNISKPSAPVANNVSKPSAVPPPPPPPPAEVEKKDLYLALYDFAGRSPNEMTIKKDEIIEIVQKEPSGWWLALKNGAEGWVPATYVTEYKGSTPQTTASSTNVAAQANNNASPAEVNNLAGSLADALRMRASAVRGSDEEEDW
B2: Vrp1p-His (full-length S. pombe verprolin Vrp1p with a COOH-terminal His-tag) (natural protein)
chain: MAPAPPPPPPAPAPAAAAPAPPLMTGDRSALLNSIQKGKKLKKATTNDRSAPVVGGGVVGERKSNTPKSFAAPPVPTGAPSLPTSSNNTQQAEERPSMPALGGLFAGGMPKLRHIGKSSASAAPPSAPAPPTPQSELRPPTSAPPRPSIPPPSPASAPPIPSKAPPIPSSLPPPAQPAAPVKSPPSAPSLPSAVPPMPPKVPPPPLSQAPVANTSSRPSSFAPPAGHAPNVTSESPKFPNRGPSIPSASVPPVPPSSYVLQQRPNRVDDHGRFHFKDDSYLPIPHPFLGVPKVYRGGSGTTVPLNLSSF

Key:
[1] = biological target: B2; assay: pull-down
actin monomers = actin monomers (UniProt P68135 1-377); assay: pull-down

| Kd [1] | Kd (actin monomers) | Binder |
| --- | --- | --- |
| 4600 nM and 5600 nM |  | B1 |
|  | 1000 nM and 900 nM and 800 nM | B2 |
